Residue numbers refer to the chain shown, from its start. In names and notes the source's numbering stands.
B1: syt 1 C2AB T328A (domain or fragment)
chain: KGGKNAINMKDVKDLGKTMKDQALKDDDAETGLTDGEEKEEPKEEEKLGKLQYSLDYDFQNNQLLVGIIQAAELPALDMGGTSDPYVKVFLLPDKKKKFETKVHRKTLNPVFNEQFTFKVPYSELGGKTLVMAVYDFDRFSKHDIIGEFKVPMNTVDFGHVTEEWRDLQSAEKEEQEKLGDICFSLRYVPTAGKLTVVILEAKNLKKMDVGGLSDPYVKIHLMQNGKRLKKKKATIKKNTLNPYYNESFSFEVPFEQIQKVQVVVTVLDYDKIGKNDAIGKVFVGYNSTGAELRHWSDMLANPRRPIAQWHTLQVEEEVDAMLAVKK
B2: syt 1 C2AB K313R/K325R/K327R (domain or fragment)
chain: B1 chain with K219R, K231R, K233R, A234T
B3: syt 1 C2AB E341A (domain or fragment)
chain: B1 chain with A234T, E247A

Target: t-SNARE heterodimer (mouse SNAP-25B and rat syntaxin 1A), reconstituted into vesicles (rat | mouse, UniProt P32851;P60879-1)
Experiment: co-flotation

t-SNARE heterodimer (mouse SNAP-25B and rat syntaxin 1A), reconstituted into vesicles, sequence (P32851 whole entry, chain 1 of 2): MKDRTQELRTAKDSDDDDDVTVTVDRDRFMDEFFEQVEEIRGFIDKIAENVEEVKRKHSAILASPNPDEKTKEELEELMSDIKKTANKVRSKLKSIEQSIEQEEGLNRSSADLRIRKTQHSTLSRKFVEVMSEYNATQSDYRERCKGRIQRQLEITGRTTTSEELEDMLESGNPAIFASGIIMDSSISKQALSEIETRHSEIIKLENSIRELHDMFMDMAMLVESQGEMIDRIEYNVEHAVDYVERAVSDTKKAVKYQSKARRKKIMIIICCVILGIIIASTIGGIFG
t-SNARE heterodimer (mouse SNAP-25B and rat syntaxin 1A), reconstituted into vesicles, sequence (P60879 whole entry, chain 2 of 2): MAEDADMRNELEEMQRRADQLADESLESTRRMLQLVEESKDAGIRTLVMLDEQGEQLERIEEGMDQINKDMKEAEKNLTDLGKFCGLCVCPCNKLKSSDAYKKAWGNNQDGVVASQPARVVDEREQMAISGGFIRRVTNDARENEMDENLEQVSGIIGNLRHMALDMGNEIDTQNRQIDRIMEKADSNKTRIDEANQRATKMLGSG

Binder	binding result
B1	binds
B2	binds
B3	binds

— article PMC2581593 (The Journal of Biological Chemistry, 2008)
